This passage reports Kd results from patent US20140100120, “METHODS OF X-APTAMER GENERATION AND COMPOSITIONS […]” (AM Biotechnologies, LLC, published 2014).

The series deals with CD44 hyaluronic acid binding domain (CD44-HABD) (UniProt P16070 P16070:20-178). Description: filter; 20 mM Tris pH 8.0, 150 mM NaCl, RT. To be noted: label: biotin. Here is the method: The equilibrium binding constants of selected XAs for CD44-HABD were determined by a filter binding assay. The biotinylated XAs (1 nM) were incubated with varying concentrations of CD44-HABD in 50 μL of 20 mM Tris, pH 8.0, 150 mM NaCl for 40 min at room temperature and then transferred to a 96-well dot-blot apparatus and filtered under vacuum onto nitrocellulose membranes, which retain the CD44-HABD along with any bound XAs. The amount of biotinylated XA retained at each spot was determined by chemiluminescent detection using the Chemiluminescent Nucleic Acid Detection Module (Thermo Scientific) following the manufacturer's instructions. The chemiluminescent signals were collected on a Chemimager (Alpha Innotech). Image analysis and quantification of spot intensities were performed using ImageJ (version 1.42q). Binding analysis was based on the spot intensities on the nitrocellulose membranes with subtraction of background spot intensity due to the buffer effect from all the data points. Saturation binding curves were generated by using GraphPad Prism with curve fits assuming a single binding site. The NH₂ XA column lists KDs for XAs where X=amino-dU. The ADDA XA column lists KDs for XAs where X=ADDA-dU.
The equilibrium binding constants of the small constructs were determined by the filter binding assay. The derived equilibrium binding constants of the above small XA constructs are shown below in Table 4.

Chain of CD44 hyaluronic acid binding domain (CD44-HABD) (P16070 20-178, one chain of several): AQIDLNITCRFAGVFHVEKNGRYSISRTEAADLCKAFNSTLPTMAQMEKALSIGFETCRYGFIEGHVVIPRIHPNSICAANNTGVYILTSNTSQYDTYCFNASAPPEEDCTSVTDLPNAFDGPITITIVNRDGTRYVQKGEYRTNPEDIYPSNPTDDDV

B1: Motif 2 thio ADDA (ssDNA)
DNA: CTGTTAGGGAACCAAGACGA
modifications: fully monothioate PS; X=ADDA-dU [n positions 2,4 = modified dU]
Consider B1, for which the Kd (hairpin (predicted)) is 15.5 nM.

B2: Motif 3 thio NH2 (ssDNA)
DNA: GCCTGCAAGACGTCCATAGACAC
modifications: fully monothioate PS; X=amino-dU [n positions 13 = modified dU]
For the molecule B2, for the setting “stem-loop (predicted)”, the Kd is 81.2 nM.

B3: Motif 4 phospho NH2 (ssDNA)
DNA: GATCTGCAATGTAACCATAGACA
modifications: X=amino-dU; phosphodiester [n positions 10 = modified dU]
For the molecule B3, under “stem-loop (predicted)”, the dissociation constant (Kd) is 6.8 nM.

B4: Motif 5 phospho NH2 (ssDNA)
DNA: AGATACAGTAAACGTCCATAGACAC
modifications: X=amino-dU; phosphodiester [n positions 4,15 = modified dU]
Turning to B4, the Kd (stem-loop (predicted)) is 13.8 nM.

B5: Motif 2 phospho NH2 (ssDNA)
DNA: CTGTTAGGGAACCAAGACGA
modifications: X=amino-dU; phosphodiester [n positions 2,4 = modified dU]
As to B5, under “hairpin (predicted)”, the Kd is 43.1 nM.

B6: Motif 3 phospho NH2 (ssDNA)
DNA: GCCTGCAAGACGTCCATAGACAC
modifications: X=amino-dU; phosphodiester [n positions 13 = modified dU]
With B6, the Kd (stem-loop (predicted)) was 27.6 nM.

B7: Motif 3 phospho ADDA (ssDNA)
DNA: GCCTGCAAGACGTCCATAGACAC
modifications: X=ADDA-dU; phosphodiester [n positions 13 = modified dU]
As for B7, the Kd (stem-loop (predicted)) is 19.5 nM.

B8: Motif 5 phospho ADDA (ssDNA)
DNA: AGATACAGTAAACGTCCATAGACAC
modifications: X=ADDA-dU; phosphodiester [n positions 4,15 = modified dU]
As to B8, the Kd (stem-loop (predicted)) was 3.9 nM.

B9: Motif 2 thio NH2 (ssDNA)
DNA: CTGTTAGGGAACCAAGACGA
modifications: fully monothioate PS; X=amino-dU [n positions 2,4 = modified dU]
Take B9: for the setting “hairpin (predicted)”, the Kd was 48 nM.

B10: Motif 4 thio NH2 (ssDNA)
DNA: GATCTGCAATGTAACCATAGACA
modifications: fully monothioate PS; X=amino-dU [n positions 10 = modified dU]
B10: for the setting “stem-loop (predicted)”, the dissociation constant (Kd) was 35.4 nM.

B11: Motif 2 phospho ADDA (ssDNA)
DNA: CTGTTAGGGAACCAAGACGA
modifications: X=ADDA-dU; phosphodiester [n positions 2,4 = modified dU]
For the molecule B11, the Kd (hairpin (predicted)) was 2 nM.

B12: Motif 4 phospho ADDA (ssDNA)
DNA: GATCTGCAATGTAACCATAGACA
modifications: X=ADDA-dU; phosphodiester [n positions 10 = modified dU]
Regarding B12, the Kd (stem-loop (predicted)) was 2.1 nM.

B13: Motif 5 thio NH2 (ssDNA)
DNA: AGATACAGTAAACGTCCATAGACAC
modifications: fully monothioate PS; X=amino-dU [n positions 4,15 = modified dU]
Consider B13, for which the Kd (stem-loop (predicted)) is 18 nM.

B14: Motif 5 thio ADDA (ssDNA)
DNA: AGATACAGTAAACGTCCATAGACAC
modifications: fully monothioate PS; X=ADDA-dU [n positions 4,15 = modified dU]
As for B14, the Kd (stem-loop (predicted)) is 10.1 nM.

B15: Motif 4 thio ADDA (ssDNA)
DNA: GATCTGCAATGTAACCATAGACA
modifications: fully monothioate PS; X=ADDA-dU [n positions 10 = modified dU]
For B15, where the note is “stem-loop (predicted)”, the Kd was 13.6 nM.

B16: Motif 3 thio ADDA (ssDNA)
DNA: GCCTGCAAGACGTCCATAGACAC
modifications: fully monothioate PS; X=ADDA-dU [n positions 13 = modified dU]
For B16, the Kd (stem-loop (predicted)) was 64.8 nM.
